# Data published in patent US20120316071A1 (published 2012).
# T1: rHuman Erythropoietin R/Fc Chimera, CF (R&D Systems Cat#963-ER) (human, UniProt P19235 25-250)
# T1 construct: Bought reagent; also called EPO R/Fc; EPO R; Fc part of the bought chimera not given
# T1 sequence (looked up): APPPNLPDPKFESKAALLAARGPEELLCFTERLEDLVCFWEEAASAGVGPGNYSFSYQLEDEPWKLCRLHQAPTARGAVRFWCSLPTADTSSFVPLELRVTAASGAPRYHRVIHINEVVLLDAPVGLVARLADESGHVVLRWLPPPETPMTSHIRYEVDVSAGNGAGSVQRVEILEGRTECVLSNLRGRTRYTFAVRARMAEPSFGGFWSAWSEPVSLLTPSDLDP
# B1: Fab VH1-46_IGHD3-10*01_IGHJ4*01 & L12_IGKJ1*01 (Fab, V domains shown)
# VH: QVQLVQSGAEVKKPGASVKVSCKASGYTFTSYYMHWVRQAPGQGLEWMGIINPSGGSTSYAQKFQGRVTMTRDTSTSTVYMELSSLRSEDTAVYYCAREYYYGSGSYYNDYFDYWGQGTLVTVSS
# VL: not shown
# notes: Tested as a Fab made in E. coli; VH was cloned into Plasmid A (CH1 with His6 and Flag tags) and the kappa VL into Plasmid C (kappa CL)
# B2: Fab VH1-3_IGHD4-23*01_IGHJ4*01 & L12_IGKJ1*01 (Fab, V domains shown)
# VH: QVQLVQSGAEVKKPGASVKVSCKASGYTFTSYAMHWVRQAPGQRLEWMGWSNAGNGNTKYSQEFQGRVTITRDTSASTAYMELSSLRSEDMAVYYCARDDYGGNSDYFDYWGQGTLVTVSS
# VL: not shown
# What was measured:
# [1] = target: T1, rHuman Erythropoietin R/Fc Chimera, CF …; experiment: MSD Multispot ECL, antigen spotted on plate, Fab 230 nM; blank spot 1656
# [2] = target: T2, Recombinant Human DLL4 (R&D Systems Cat#1506-D4/CF) (human, UniProt Q9NR61 27-529); experiment: as above
# T2 construct: Bought recombinant protein; also called rHuman DLL4; delta-like protein 4
# [3] = target: T3, rHuman Notch-1/Fc Chimera, CF (R&D Systems Cat#3647-TK) (human, UniProt P46531 19-526); experiment: as above
# T3 construct: Bought reagent; Fc part of the bought chimera not given
# [4] = target: T4, rHuman IGF-1 sR, (IGF-1 sR), CF (R&D Systems Cat#391-GR) (human, UniProt P08069 31-932); experiment: as above
# T4 construct: Bought soluble receptor; also called insulin-like growth factor-1 soluble receptor
# [5] = target: T1, rHuman Erythropoietin R/Fc Chimera, CF …; experiment: MSD Multispot ECL, antigen spotted on plate, Fab 57.5 nM; blank spot 954
# [6] = target: T2, Recombinant Human DLL4 (R&D Systems …); experiment: as above
# [7] = target: T3, rHuman Notch-1/Fc Chimera, CF (R&D …); experiment: as above
# [8] = target: T4, rHuman IGF-1 sR, (IGF-1 sR), CF (R&D …); experiment: as above
# [9] = target: T1, rHuman Erythropoietin R/Fc Chimera, CF …; experiment: MSD Multispot ECL, antigen spotted on plate, Fab 14.375 nM; blank spot 738
# [10] = target: T2, Recombinant Human DLL4 (R&D Systems …); experiment: as above
# [11] = target: T3, rHuman Notch-1/Fc Chimera, CF (R&D …); experiment: as above
# [12] = target: T4, rHuman IGF-1 sR, (IGF-1 sR), CF (R&D …); experiment: as above
# [13] = target: T1, rHuman Erythropoietin R/Fc Chimera, CF …; experiment: MSD Multispot ECL, antigen spotted on plate, Fab 920 nM; blank spot 4082
# [14] = target: T2, Recombinant Human DLL4 (R&D Systems …); experiment: as above
# [15] = target: T3, rHuman Notch-1/Fc Chimera, CF (R&D …); experiment: as above
# [16] = target: T4, rHuman IGF-1 sR, (IGF-1 sR), CF (R&D …); experiment: as above
# [17] = target: T5, rHuman CD44/Fc Chimera, CF (R&D Systems Cat#3660-CD) (human, UniProt P16070 21-220); experiment: Multispot ECL (MSD), antigen spotted on plate, Fab 60 nM; blank spot 1433
# T5 construct: Bought recombinant protein; Fc part of the bought chimera not given
# [18] = target: T6, rHuman ErbB2/Fc Chimera, CF (R&D Systems Cat#1129-ER) (human, UniProt P04626 23-652); experiment: as above
# T6 construct: Bought recombinant protein; also called human epidermal growth factor 2 receptor; Fc part of the bought chimera not given
# [19] = target: T7, Recombinant Human DLL4 (R&D Systems Cat#1506-D4/CF) (human, UniProt Q9NR61 27-524); experiment: as above
# T7 construct: it includes the signal peptide (amino acids 1-25), the transmembrane region and the cytoplasmic domain; also called delta-like protein 4; rHuman DLL4
# [20] = target: T8, rHuman IGF-1 sR, (IGF-1 sR), CF (R&D Systems Cat#391-GR) (human, UniProt P08069 31-932); experiment: as above
# T8 construct: Bought soluble receptor; also called insulin-like growth factor-1 soluble receptor
# [21] = target: T5, rHuman CD44/Fc Chimera, CF (R&D Systems …); experiment: Multispot ECL (MSD), antigen spotted on plate, Fab 0.9375 nM; blank spot 153
# [22] = target: T6, rHuman ErbB2/Fc Chimera, CF (R&D …); experiment: as above
# [23] = target: T7, Recombinant Human DLL4 (R&D Systems …); experiment: as above
# [24] = target: T8, rHuman IGF-1 sR, (IGF-1 sR), CF (R&D …); experiment: as above
# [25] = target: T5, rHuman CD44/Fc Chimera, CF (R&D Systems …); experiment: Multispot ECL (MSD), antigen spotted on plate, Fab 3.75 nM; blank spot 191
# [26] = target: T6, rHuman ErbB2/Fc Chimera, CF (R&D …); experiment: as above
# [27] = target: T7, Recombinant Human DLL4 (R&D Systems …); experiment: as above
# [28] = target: T8, rHuman IGF-1 sR, (IGF-1 sR), CF (R&D …); experiment: as above
# [29] = target: T5, rHuman CD44/Fc Chimera, CF (R&D Systems …); experiment: Multispot ECL (MSD), antigen spotted on plate, Fab 15 nM; blank spot 536
# [30] = target: T6, rHuman ErbB2/Fc Chimera, CF (R&D …); experiment: as above
# [31] = target: T7, Recombinant Human DLL4 (R&D Systems …); experiment: as above
# [32] = target: T8, rHuman IGF-1 sR, (IGF-1 sR), CF (R&D …); experiment: as above
binder,measurement,setting,value
B1,ECL signal,[1],6950
same,ECL signal,[2],119000
same,ECL signal,[3],9740
same,ECL signal,[4],4760
same,ECL signal,[5],4040
same,ECL signal,[6],144000
same,ECL signal,[7],5890
same,ECL signal,[8],2830
same,ECL signal,[9],2720
same,ECL signal,[10],125000
same,ECL signal,[11],4210
same,ECL signal,[12],1750
same,ECL signal,[13],16400
same,ECL signal,[14],73600
same,ECL signal,[15],20100
same,ECL signal,[16],10200
B2,ECL signal,[17],2360
same,ECL signal,[18],2160
same,ECL signal,[19],17300
same,ECL signal,[20],2670
same,ECL signal,[21],251
same,ECL signal,[22],268
same,ECL signal,[23],453
same,ECL signal,[24],204
same,ECL signal,[25],307
same,ECL signal,[26],291
same,ECL signal,[27],1570
same,ECL signal,[28],314
same,ECL signal,[29],748
same,ECL signal,[30],740
same,ECL signal,[31],7730
same,ECL signal,[32],859
